This is an account of results in article PMC5829233, “PV1, a novel Plasmodium falciparum merozoite dense granule protein, interacts with exported protein in infected erythrocytes” (Scientific Reports, 2018).

Usually Kd stands for the free concentration of one partner at which half of the binding sites on the other are occupied at equilibrium, for simple one-to-one binding. For orientation: stoichiometry N means a count of units in the complex or per binding partner.

B1: PTP5_Tr0, GST-tagged recombinant PTP5 36 aa - 631 aa (domain or fragment)
chain: TYNNYTYNGYNNDGSKQVRCKRLLSEPAVEFDTIFDVFKESFLDQMGCSDQDKDEIKNAMKIYYDNIDMNALSNEIQTNDNFFNEFGNDVNSINKIMKTDITNEQGTSADNNTTENNVSTSQVDEQPEASTSGVERMKERSNLFANNLTEEKNDTGDIKKEENKSKPSQLDGNNHSETSSHQGEKNNENETEKKTDQNETGTKKPSKYTMNLDSPLLKGSSEGETSSKKAQEKSVEPTKKPSKYTMNLDSPLLKGSSGSETSSTKESNDSNGATKKPSKYTMNLDSPLLKGSSGGKTSSNKESNESNEPTKKPSKYTMNLDSPLLKGSSGGETSSNKESNENNEPTKKPSKYTMNLDSPLLKGSSEGETSSNKESNESNEPTKKPSKYTMNLDSPLLKGSSGGETSSNKESNENNEPTKKPSKYTMNLDSPLLKGSSEGETSSNKESNESNEPTKKPSKYTMNLDSPLLKGSSEGETSSNEKQEESNVATKKPSKYTLNLDSPLLKSETKSDVKRGSNKSFSLENIGKLDIGSLLAQNLELLKGFALNFQTLSLFFLVFVGQFYPKHFQKAAIFIGMVNVFLECKRLYGRSQKKLK
notes: not shown: GST, N-terminal, kept
B2: recombinant PfPV1 (P. falciparum Parasitophorous Vacuolar protein 1), His-tagged (natural protein)
chain: VVAPKSAEAVHTLTAKLDTENKAHQKYIDIINGVFSENMENFVFSITTSNGFTCSINKLDVIFDNKVTGMQKVFSDENVQYIKEASLEFKNNLLEYMKGVMPSENDFSNVRKEFQKVCVKYFSELRRKFFQIYRDPNNKNQNEDNVDNHMNIEEISQEFFSGFNPFGTMKIRKEQNPDLSQKDSLILNENNNDSLTSADQKNNNMVPMENRSFSYSQQSSHVVSFDGHDEHVEQQEQHSGDNTQEDKDQLMDLPFNKDKVFSTFLKNVTLLIEGNCTEAQQQAQEQTQEQTEEQEEEQNEKEIESDKQVQKDGEQKENDVQKKQKANAFTIQFSSSLSRKHISTTCNASSGNVFLRKGNKPFEHFNSPNFENMMKGVFGIIQNPFENGQPTFPFFKNINSISGIGNVDIPKNFMNDFLNNGNDQNTPISS
notes: also called His-tagged purified recombinant PfPV1; not shown: His6, C-terminal, kept

For assay [1], the target named is recombinant PfPV1 (P. falciparum Parasitophorous Vacuolar protein 1), His-tagged (P. falciparum 3D7) (UniProt Q8II72). In words: SPR; Biacore X100, CM5 chip, […]; HBS-EP+ (10 mM HEPES pH 7.4, 150 mM NaCl, 3 mM EDTA, 0.05% P20); single-cycle kinetics, global fit.
Assay [2] shares this target. In words: SPR; Biacore X100, CM5 chip, […]; HBS-EP+ (10 mM HEPES pH 7.4, 150 mM NaCl, 3 mM EDTA, 0.05% P20); multi-cycle kinetics, global fit.
The target of assay [3] is B2. In words: SPR; Biacore X100, CM5 chip, […]; HBS-EP+ (10 mM HEPES pH 7.4, 150 mM NaCl, 3 mM EDTA, 0.05% P20); single-cycle kinetics, global fit. To be noted: both partners purified. In general terms: SPR reads the build-up and loss of mass on a sensor chip optically.
Assay [4] addresses B1. Described as above. To be noted: both partners purified.
Assay [5] concerns the target T1, recombinant PfPV1 (P. falciparum Parasitophorous Vacuolar protein 1), His-tagged (P. falciparum 3D7, UniProt Q8II72 23-452).
T1 chain: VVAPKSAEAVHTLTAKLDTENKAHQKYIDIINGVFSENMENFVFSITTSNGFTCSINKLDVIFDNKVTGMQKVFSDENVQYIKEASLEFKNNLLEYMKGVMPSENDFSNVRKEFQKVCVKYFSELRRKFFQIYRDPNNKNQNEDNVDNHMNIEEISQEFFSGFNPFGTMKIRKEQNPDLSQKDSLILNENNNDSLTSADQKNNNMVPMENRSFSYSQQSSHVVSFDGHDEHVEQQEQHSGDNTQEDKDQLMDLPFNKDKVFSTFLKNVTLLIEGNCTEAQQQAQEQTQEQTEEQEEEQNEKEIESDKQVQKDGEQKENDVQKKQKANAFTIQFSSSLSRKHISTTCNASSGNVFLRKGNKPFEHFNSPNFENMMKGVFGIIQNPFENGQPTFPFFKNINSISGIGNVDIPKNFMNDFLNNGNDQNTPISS
Description: SPR.

For the molecule “PTP5_Tr2, GST-tagged recombinant PTP5 537 aa - 631 aa (domain or fragment)”, the Kd in assay [1] stood at 1.24 nM.
In the case of “PTP5_Tr1, GST-tagged recombinant PTP5 36 aa - 334 aa (domain or fragment)”, the dissociation constant (Kd) in assay [2] was 938 nM.
As for B1, the “stoichiometry N” value in assay [3] came to 1.
Turning to B2, the Kd in assay [4] came out at 2.71 nM.

B3: Pf3D7_0801000N, N-terminal truncate of Pf3D7_0801000 spanning 93 aa - 494 aa (domain or fragment)
chain: GANPESISLGYELSEKDEGNKNDLINSATDVSTELENLKERLFPELELYTNDQNSRNNTPNLRKGSLGFDSFKKLELGTLNQFDKDKMINLKDETNMNEFEGFLGRNSMASNVVTSELFDEPVDDSSSTTTSTGTKLQNVPSNDNNGELLKDEPIDDYINNNSKVESEDNYYAQQNMQSQSKDNYASEQNVADQSTDNYPTQHDVPVQLRDNYASEQEYFDRGEQLNDVSADNNTSNKLKDEPVDNNTSNKLKDEPVDNNTSNKLKDEPVDDNTSNKLKDEPVDNNTINKLKDEPVDDNTSNILKDEPVDDHAGKHLKDEPVDDHAGKHMKDEPVDIDRTNIKKGLNEQHVNPWTTTLADLKNINNSMKIEKNNKSNEQVKNTSVSKSCDIIKPSKFNKKNL
B3: in assay [5], the Kd is 45.4 nM.
